Columns and labels:
[1] = molecular target: T1, GARS-His (Sino Biological) (human, UniProt P41250 37-739, limits assumed); test: ELISA, coated recombinant GARS-His, anti-human Fab-peroxidase detection
T1 construct: Bought; also called GARS1; glycyl-tRNA synthetase; not shown: His tag of the bought protein
T1 sequence: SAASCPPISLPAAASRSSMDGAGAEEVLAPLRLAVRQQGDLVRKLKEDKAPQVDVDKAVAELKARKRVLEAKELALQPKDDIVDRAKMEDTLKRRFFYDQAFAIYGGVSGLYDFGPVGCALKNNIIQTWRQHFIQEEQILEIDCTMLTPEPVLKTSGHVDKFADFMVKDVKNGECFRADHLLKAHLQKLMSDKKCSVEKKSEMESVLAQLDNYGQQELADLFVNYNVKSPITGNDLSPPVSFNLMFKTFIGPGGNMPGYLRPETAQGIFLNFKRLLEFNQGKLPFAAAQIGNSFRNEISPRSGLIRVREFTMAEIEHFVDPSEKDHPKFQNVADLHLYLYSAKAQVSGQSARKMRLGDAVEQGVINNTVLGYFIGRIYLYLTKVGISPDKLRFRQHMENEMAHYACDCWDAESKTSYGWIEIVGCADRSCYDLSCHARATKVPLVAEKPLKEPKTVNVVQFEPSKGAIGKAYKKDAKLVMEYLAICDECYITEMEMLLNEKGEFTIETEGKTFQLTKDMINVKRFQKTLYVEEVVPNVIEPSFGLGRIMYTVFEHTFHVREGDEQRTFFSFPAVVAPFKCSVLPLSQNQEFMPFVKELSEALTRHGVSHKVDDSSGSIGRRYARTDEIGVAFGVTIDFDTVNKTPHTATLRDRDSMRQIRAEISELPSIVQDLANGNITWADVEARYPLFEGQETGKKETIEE
Protocol: ELISA ELISA was conducted as described previously. Briefly, 50-150 ng of antigen was coated overnight in half-area 96-well plates at 4° C., blocked with 3% BSA at 37° C. for 1 h, and 150 ng of chimeric rabbit/human IgG1 was added, incubating for 2 h at 37° C. […] After incubating at 37° C. for 15 min-1 h (depending on intensity of controls), data were acquired using a SpectraMax M5 plate reader (Molecular Devices).

[2] = molecular target: T2, PTPRG, endogenous in H929 multiple myeloma cells (human, UniProt P23470 20-1445); test: flow cytometry, H929 + CDH18 siRNA; None 0.19
T2 construct: Native protein on H929 cells (flow cytometry, siRNA knockdown) and in H929 lysates (IP/MS); also called phosphatase receptor type γ

[3] = molecular target: T2, PTPRG, endogenous in H929 multiple …; test: flow cytometry, H929 + GARS siRNA; None 452
[4] = molecular target: T3, CADM1, endogenous in H929 multiple myeloma cells (human, UniProt Q9BY67 45-442); test: flow cytometry, H929 + ICAM1 siRNA; None 455
T3 construct: Native protein on H929 cells (flow cytometry, siRNA knockdown) and in H929 lysates (IP/MS); RPMI-8226 cells were used for sorting with HW-97; also called IGSF4A
T3 sequence: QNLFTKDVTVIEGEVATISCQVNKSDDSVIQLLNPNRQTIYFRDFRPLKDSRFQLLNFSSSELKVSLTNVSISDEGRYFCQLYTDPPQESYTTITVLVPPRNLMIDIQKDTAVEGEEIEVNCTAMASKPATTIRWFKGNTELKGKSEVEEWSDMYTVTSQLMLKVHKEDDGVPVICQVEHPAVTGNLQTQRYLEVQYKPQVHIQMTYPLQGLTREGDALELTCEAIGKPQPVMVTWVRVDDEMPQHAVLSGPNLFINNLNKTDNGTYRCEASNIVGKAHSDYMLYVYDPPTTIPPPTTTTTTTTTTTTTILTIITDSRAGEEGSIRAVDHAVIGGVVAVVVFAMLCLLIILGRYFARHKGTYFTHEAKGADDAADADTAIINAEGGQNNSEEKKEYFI

[5] = molecular target: T3, CADM1, endogenous in H929 multiple …; test: flow cytometry, H929 + PTPRG siRNA; None 2.13
[6] = molecular target: T3, CADM1, endogenous in H929 multiple …; test: flow cytometry, H929 + PTPRG siRNA; None 490
[7] = molecular target: T3, CADM1, endogenous in H929 multiple …; test: flow cytometry, H929 + CDH18 siRNA; None 0.19
[8] = molecular target: T3, CADM1, endogenous in H929 multiple …; test: flow cytometry, H929 + GARS siRNA; None 452
[9] = molecular target: T4, ICAM1, endogenous in H929 multiple myeloma cells (human, UniProt P05362 28-532); test: flow cytometry, H929 + NT Green siRNA; None 1.35
T4 construct: Native protein on H929 cells (flow cytometry, siRNA knockdown) and in H929 lysates (IP/MS); also called CD54

[10] = molecular target: T4, ICAM1, endogenous in H929 multiple …; test: flow cytometry, H929 + CADM1 siRNA; None 0.89
[11] = molecular target: T4, ICAM1, endogenous in H929 multiple …; test: flow cytometry, H929 + NT Green siRNA; None 416
[12] = molecular target: T4, ICAM1, endogenous in H929 multiple …; test: flow cytometry, H929 + CDH18 siRNA; None 0.19
[13] = molecular target: T4, ICAM1, endogenous in H929 multiple …; test: flow cytometry, H929 + GARS siRNA; None 452
[14] = molecular target: T4, ICAM1, endogenous in H929 multiple …; test: flow cytometry, H929 + CADM1 siRNA; None 449
[15] = molecular target: T2, PTPRG, endogenous in H929 multiple …; test: flow cytometry, IgG1 on cell lines, heatmap of % positive cells

T2 sequence (P23470 20-1445 limits assumed): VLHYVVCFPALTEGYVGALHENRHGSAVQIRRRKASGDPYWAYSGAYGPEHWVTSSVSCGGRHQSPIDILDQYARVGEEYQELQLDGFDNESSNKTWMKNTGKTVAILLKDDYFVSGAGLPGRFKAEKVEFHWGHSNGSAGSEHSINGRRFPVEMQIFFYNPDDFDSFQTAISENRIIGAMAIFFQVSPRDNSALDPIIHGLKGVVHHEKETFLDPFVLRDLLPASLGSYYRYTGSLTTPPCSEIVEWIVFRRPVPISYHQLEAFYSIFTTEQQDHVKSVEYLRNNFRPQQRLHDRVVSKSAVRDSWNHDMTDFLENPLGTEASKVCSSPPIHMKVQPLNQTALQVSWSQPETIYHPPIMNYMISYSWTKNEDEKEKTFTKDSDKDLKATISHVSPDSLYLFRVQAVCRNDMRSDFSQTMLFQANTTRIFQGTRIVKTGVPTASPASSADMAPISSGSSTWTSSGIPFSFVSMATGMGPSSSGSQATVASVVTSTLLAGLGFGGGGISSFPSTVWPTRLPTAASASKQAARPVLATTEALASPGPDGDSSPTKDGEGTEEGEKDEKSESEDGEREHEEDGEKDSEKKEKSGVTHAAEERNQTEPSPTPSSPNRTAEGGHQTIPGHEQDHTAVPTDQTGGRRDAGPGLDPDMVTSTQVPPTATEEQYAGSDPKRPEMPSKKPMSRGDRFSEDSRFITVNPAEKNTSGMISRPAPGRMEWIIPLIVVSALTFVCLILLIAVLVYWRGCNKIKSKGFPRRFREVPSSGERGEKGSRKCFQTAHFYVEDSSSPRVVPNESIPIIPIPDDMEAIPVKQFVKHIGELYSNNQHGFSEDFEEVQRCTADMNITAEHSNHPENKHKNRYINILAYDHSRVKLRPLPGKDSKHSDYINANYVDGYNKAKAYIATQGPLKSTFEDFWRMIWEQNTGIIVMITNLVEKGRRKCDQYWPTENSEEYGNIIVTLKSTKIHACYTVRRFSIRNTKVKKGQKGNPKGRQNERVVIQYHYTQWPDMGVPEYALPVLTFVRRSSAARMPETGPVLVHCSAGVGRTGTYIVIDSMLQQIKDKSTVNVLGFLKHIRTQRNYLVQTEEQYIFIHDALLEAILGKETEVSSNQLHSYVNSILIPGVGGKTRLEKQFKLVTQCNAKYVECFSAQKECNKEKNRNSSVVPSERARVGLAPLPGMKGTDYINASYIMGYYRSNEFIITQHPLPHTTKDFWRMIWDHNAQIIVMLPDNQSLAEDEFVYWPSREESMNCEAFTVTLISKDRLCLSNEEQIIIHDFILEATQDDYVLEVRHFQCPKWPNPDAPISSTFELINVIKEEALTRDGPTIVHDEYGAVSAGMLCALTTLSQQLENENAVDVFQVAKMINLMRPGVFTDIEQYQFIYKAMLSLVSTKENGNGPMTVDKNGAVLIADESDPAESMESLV
T4 sequence (P05362 28-532 limits assumed): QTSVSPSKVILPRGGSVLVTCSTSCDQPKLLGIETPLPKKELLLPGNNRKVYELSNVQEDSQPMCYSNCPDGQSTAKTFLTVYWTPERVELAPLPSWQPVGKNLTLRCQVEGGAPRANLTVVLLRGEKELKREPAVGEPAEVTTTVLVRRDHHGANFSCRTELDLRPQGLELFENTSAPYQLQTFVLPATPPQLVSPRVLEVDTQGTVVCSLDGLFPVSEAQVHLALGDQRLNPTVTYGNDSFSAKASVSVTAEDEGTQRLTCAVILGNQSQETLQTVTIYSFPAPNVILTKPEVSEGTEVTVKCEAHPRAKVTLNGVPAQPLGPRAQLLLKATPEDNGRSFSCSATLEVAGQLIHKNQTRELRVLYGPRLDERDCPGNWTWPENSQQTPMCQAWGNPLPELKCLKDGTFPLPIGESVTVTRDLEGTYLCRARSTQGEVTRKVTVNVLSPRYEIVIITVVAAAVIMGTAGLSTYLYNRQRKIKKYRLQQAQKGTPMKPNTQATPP

B1: HW-8 chimeric rabbit-human IgG1 LA/LA/PG (antibody, V domains shown)
VH: QSLEESGGRLVTPGTPLTLTCTVSGFSLSSYAMSWVRQAPGKGLEWIGAISTGGSTTYASWAKGRFTISKTSSTTVDLKMTSLTTEDTATYFCVRHFRLWGPGTLVTISS
VL: QVLTQTPSSVSAAVGGTVTIKCQASQSIGSALAWFQQKPGQRPKLLIYRASNLASGVPSRFKGSGSGTEFALTISGVQREDAATYYCLGGAAAVWAFGAGTNVEIKR
notes: Fc-silenced (L234A/L235A/P329G) IgG1, kappa; Alexa Fluor 647-labeled in single-step flow cytometry; Cluster C-45
B1: no binding (tested: 150 ng of IgG1 per well) [1].

B2: HW-42 chimeric rabbit-human IgG1 LA/LA/PG (antibody, V domains shown)
VH: QSVKESEGGLFKPADTLTLTCTVSGFSLSSNEISWVRQAPGEGLEYIGIIDTGGRAYYAVWARSRSTITRNTNLNTVTLKMTSLTAADTATYFCARGGVDTEWYAFSSWGPGTLVTVPS
VL: SFVLTQPASVQVNLGQTVSLTCTADTLSRRYASWYQQKPGQAPVLLIFRDTSRPSGVPDRFSGSSSGDTATLTISGAQAGDEADYYCATSDGSGSNYQYVFGGGTQLTVTG
notes: Fc-silenced (L234A/L235A/P329G) IgG1, lambda; Alexa Fluor 647-labeled in single-step flow cytometry; Cluster C-1
In the case of B2, the “Cells stained (%)” value [2] is reported as 99.5% and the “mAb binding (MFI)” value [3] is reported as 9850.

B3: HW-97 chimeric rabbit-human IgG1 LA/LA/PG (antibody, V domains shown)
VH: QKQLVESGGRLVTPGTPLTLTCTVTGIDLSSHGMSWVRQAPGKGLEWIGVIYPSGSTWYASWARGRFTISKTSTTVDLKMTSLTTEDTATHFCARGDVGGADNNIWGPGTLVTVSS
VL: SFVLTQPASVQVDLGQTVSLTCTAETLSRSYASWYQQKPGQAPVLLIYRDTSRPSGVPDRFSGSSSGNTATLTISGAQAGDEADYYCATSDGSGSSYQYVFGGGTQLTVTG
notes: Fc-silenced (L234A/L235A/P329G) IgG1, lambda; Alexa Fluor 647-labeled in single-step flow cytometry; Prototype of cluster C-97
In the case of B3, the “mAb binding (MFI)” value [4] is reported as 9430, the “Cells stained (%)” value [5] is reported as 94.8% and the “mAb binding (MFI)” value [6] is reported as 7040. The “Cells stained (%)” value [7] was 99.7% and the “mAb binding (MFI)” value [8] was 22100.

B4: HW-113 chimeric rabbit-human IgG1 LA/LA/PG (antibody, V domains shown)
VH: QKQLVESGGGLVQPGGSLTLTCTVSGFSLNKYYMGWFRQAPGKGLEWIGVISRSGDTYYSSWAKGRFTISKASTTVDLRITSPTTEDTATYFCARDASSPGFHGDRLDLWGQGTLVTVSS
VL: SFVLTQPASVQVNLGQTVSLTCTADTLSRSYASWYQQKPGQAPVLLIYRDTSRPSGVPDRFSGSSSGNTATLTISGAQAGDEADYYCATSDGIGSNYLWVFGGGTQLTVTG
notes: Fc-silenced (L234A/L235A/P329G) IgG1, lambda; Alexa Fluor 647-labeled in single-step flow cytometry
With B4 the “Cells stained (%)” value [9] was 99.8%, the “Cells stained (%)” value [10] was 99.7% and the “mAb binding (MFI)” value [11] was 51900. The “Cells stained (%)” value [12] was 98.8%, the “mAb binding (MFI)” value [13] was 43200 and the “mAb binding (MFI)” value [14] was 32600.

B5: HW-101 chimeric rabbit-human IgG1 LA/LA/PG (antibody, V domains shown)
VH: QEQLVESGGRLVTPGTPLTLTCKASGFSLGKYDMSWVRQAPGKGLEWIGTIYAGSGSTWYASWAKGRFTISKTSTTVDLKMTSLTTEDTATYFCARDFLGVNSIWGPGTLVTISS
VL: SFVLTQPASVQVNLGQTVSLTCTADTLSRSYASWYQQKPDQAPVLLIHRDTSRPSGVPDRFSGSNSGNTATLTISGAQAGDEADYYCATSDGSGSNFHFVFGGGTQLTVTG
notes: Fc-silenced (L234A/L235A/P329G) IgG1, lambda; Alexa Fluor 647-labeled in single-step flow cytometry; Cluster C-97
For B5, the “mAb binding (MFI)” value [4] was 6390, the “Cells stained (%)” value [5] was 85.3% and the “mAb binding (MFI)” value [6] was 5900.

B6: TH9-0022 (antibody, human IgG1, kappa, L234A L235A, V domains shown)
VH: QSLEESGGRLVTPGTPLTLTCTVSGFSLSSYAMNWVRQAPGKGLEWIGIINSYGSTYYASWAKGRFTISKTSTTVDLKITSPTTEDTATYFCARVTYDSYGYGYAPYGMDLWGPGTLVTVSS
VL: LVMTQTPSSTSNAVGGTVTIKCQASQSIGNVLAWYQQKPGQPPKLLIYAASTLASGVPSRVGGSRSGTEYTLTISGVQREDAATYYCLGSDSDSDIAFGGGTELEILR
notes: also called TH9-022; negative control
B6 was tested, and the “Cells stained (%)” value [9] was 1.86% and the “mAb binding (MFI)” value [11] was 483.

B7: TH9-0022 (antibody, human IgG1, kappa, L234A L235A, V domains shown)
VH: QSLEESGGRLVTPGTPLTLTCTVSGFSLSSYAMNWVRQAPGKGLEWIGIINSYGSTYYASWAKGRFTISKTSTTVDLKITSPTTEDTATYFCARVTYDSYGYGYAPYGMDLWGPGTLVTVSS
VL: LVMTQTPSSTSNAVGGTVTIKCQASQSIGNVLAWYQQKPGQPPKLLIYAASTLASGVPSRVGGSRSGTEYTLTISGVQREDAATYYCLGSDSDSDIAFGGGTELEILR
notes: also called TH9-022; negative control IgG1
B7: no binding [15].
